# Data reported in patent US20140080757A1 (ZEALAND PHARMA A S, published 2014).
# Numbered stars: 1 amine (or outer) side, 2 acyl side, 3 side chain; on linkers, the order of the positions; unused ones are H or OH. Side chains are listed from the residue outwards. * marks the point of attachment. γGlu = O=C(O)[C@H](CCC(=O)[*:2])N[*:1]; Palmitoyl = CCCCCCCCCCCCCCCC(=O)*
# T1: endogenous GLP-1 receptor of a murine insulinoma cell line (murine, UniProt O35659 22-463)
# T1 sequence (looked up): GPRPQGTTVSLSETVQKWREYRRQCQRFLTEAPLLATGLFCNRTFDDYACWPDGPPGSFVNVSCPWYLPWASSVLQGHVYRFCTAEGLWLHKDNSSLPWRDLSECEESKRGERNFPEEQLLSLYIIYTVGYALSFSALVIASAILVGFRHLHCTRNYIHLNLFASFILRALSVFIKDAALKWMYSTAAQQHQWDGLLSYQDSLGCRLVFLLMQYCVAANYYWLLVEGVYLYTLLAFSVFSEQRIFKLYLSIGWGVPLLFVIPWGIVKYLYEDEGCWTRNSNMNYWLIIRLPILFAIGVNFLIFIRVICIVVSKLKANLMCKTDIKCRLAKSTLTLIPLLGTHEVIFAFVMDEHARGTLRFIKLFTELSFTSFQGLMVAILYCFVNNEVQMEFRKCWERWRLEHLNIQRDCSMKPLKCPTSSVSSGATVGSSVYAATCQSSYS
# Legend:
# Test in all cases: cell-based or functional assay
# [1] = molecular target: human glucagon receptor (Glucagon-R) (human, UniProt P47871 26-477)
# [2] = molecular target: human glucagon-like peptide 1 receptor (GLP-1R) (human, UniProt P43220 24-463)
# [3] = molecular target: T1, endogenous GLP-1 receptor of a murine …
# [4] = molecular target: endogenous glucagon receptor of primary rat hepatocytes (rat, UniProt P30082 27-485)
# endogenous glucagon receptor of primary rat hepatocytes, sequence (P30082 27-485): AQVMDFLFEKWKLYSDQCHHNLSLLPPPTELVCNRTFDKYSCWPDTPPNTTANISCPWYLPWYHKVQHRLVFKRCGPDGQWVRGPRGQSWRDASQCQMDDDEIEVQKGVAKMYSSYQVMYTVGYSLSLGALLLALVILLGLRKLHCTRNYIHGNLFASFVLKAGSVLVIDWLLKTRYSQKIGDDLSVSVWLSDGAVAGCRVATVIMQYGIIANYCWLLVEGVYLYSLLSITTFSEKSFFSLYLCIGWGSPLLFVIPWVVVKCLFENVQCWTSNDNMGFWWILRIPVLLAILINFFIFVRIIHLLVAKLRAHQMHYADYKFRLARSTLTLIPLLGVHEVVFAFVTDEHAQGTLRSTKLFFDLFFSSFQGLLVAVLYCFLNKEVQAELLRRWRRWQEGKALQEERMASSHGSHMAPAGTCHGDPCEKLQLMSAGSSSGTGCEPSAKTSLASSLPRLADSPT
# human glucagon receptor (Glucagon-R), sequence (P47871 26-477): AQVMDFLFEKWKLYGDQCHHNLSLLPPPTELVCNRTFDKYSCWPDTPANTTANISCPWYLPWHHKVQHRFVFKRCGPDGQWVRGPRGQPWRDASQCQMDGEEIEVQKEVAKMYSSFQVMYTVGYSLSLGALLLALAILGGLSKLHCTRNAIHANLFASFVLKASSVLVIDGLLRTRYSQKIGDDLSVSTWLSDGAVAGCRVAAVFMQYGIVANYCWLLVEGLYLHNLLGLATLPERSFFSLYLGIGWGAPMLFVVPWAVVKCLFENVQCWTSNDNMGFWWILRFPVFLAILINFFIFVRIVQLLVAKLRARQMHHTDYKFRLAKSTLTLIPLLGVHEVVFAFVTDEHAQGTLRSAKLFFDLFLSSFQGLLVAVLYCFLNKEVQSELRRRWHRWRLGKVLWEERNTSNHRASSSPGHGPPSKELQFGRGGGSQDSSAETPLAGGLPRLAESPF
Binder,EC50 hGCGR CHO-K1 [nM] (cAMP) [1],EC50 hGLP-1R CHO-K1 [nM] (cAMP) [2],Ratio GLP-1/Glucagon (EC50 hGLP-1R / EC50 hGCGR) [2] [ratio],EC50 GLP-1R (murine insulinoma cells) [nM] (cAMP) [3],EC50 GLP-1R Rat hepat. [nM] (inhibition of glycogen synthesis) [4]
H-HSQGTFTSDYSKYLDSK([γGlu-Palmitoyl])AAEDFVEWLLRA-NH2 (SMILES CCCCCCCCCCCCCCCC(=O)N[C@@H](CCC(=O)NCCCC[C@H](NC(=O)[C@H](CO)NC(=O)[C@H](CC(=O)O)NC(=O)[C@H](CC(C)C)NC(=O)[C@H](Cc1ccc(O)cc1)NC(=O)[C@H](CCCCN)NC(=O)[C@H](CO)NC(=O)[C@H](Cc1ccc(O)cc1)NC(=O)[C@H](CC(=O)O)NC(=O)[C@H](CO)NC(=O)[C@@H](NC(=O)[C@H](Cc1ccccc1)NC(=O)[C@@H](NC(=O)CNC(=O)[C@H](CCC(N)=O)NC(=O)[C@H](CO)NC(=O)[C@@H](N)Cc1c[nH]cn1)[C@@H](C)O)[C@@H](C)O)C(=O)N[C@@H](C)C(=O)N[C@@H](C)C(=O)N[C@@H](CCC(=O)O)C(=O)N[C@@H](CC(=O)O)C(=O)N[C@@H](Cc1ccccc1)C(=O)N[C@H](C(=O)N[C@@H](CCC(=O)O)C(=O)N[C@@H](Cc1c[nH]c2ccccc12)C(=O)N[C@@H](CC(C)C)C(=O)N[C@@H](CC(C)C)C(=O)N[C@@H](CCCNC(=N)N)C(=O)N[C@@H](C)C(N)=O)C(C)C)C(=O)O) [Compound 7],0.45,0.27,0.6,0.84,1.92
H-HSQGTFTSDYSKYLDSK([γGlu-Palmitoyl])AAHDFVEWLLR-OH (SMILES CCCCCCCCCCCCCCCC(=O)N[C@@H](CCC(=O)NCCCC[C@H](NC(=O)[C@H](CO)NC(=O)[C@H](CC(=O)O)NC(=O)[C@H](CC(C)C)NC(=O)[C@H](Cc1ccc(O)cc1)NC(=O)[C@H](CCCCN)NC(=O)[C@H](CO)NC(=O)[C@H](Cc1ccc(O)cc1)NC(=O)[C@H](CC(=O)O)NC(=O)[C@H](CO)NC(=O)[C@@H](NC(=O)[C@H](Cc1ccccc1)NC(=O)[C@@H](NC(=O)CNC(=O)[C@H](CCC(N)=O)NC(=O)[C@H](CO)NC(=O)[C@@H](N)Cc1c[nH]cn1)[C@@H](C)O)[C@@H](C)O)C(=O)N[C@@H](C)C(=O)N[C@@H](C)C(=O)N[C@@H](Cc1c[nH]cn1)C(=O)N[C@@H](CC(=O)O)C(=O)N[C@@H](Cc1ccccc1)C(=O)N[C@H](C(=O)N[C@@H](CCC(=O)O)C(=O)N[C@@H](Cc1c[nH]c2ccccc12)C(=O)N[C@@H](CC(C)C)C(=O)N[C@@H](CC(C)C)C(=O)N[C@@H](CCCNC(=N)N)C(=O)O)C(C)C)C(=O)O) [Compound 9],0.25,0.35,1.4,1.02,0.37
H-HSQGTFTSDYSKYLDSK([γGlu-Palmitoyl])AAHDFVEWLLS-NH2 (SMILES CCCCCCCCCCCCCCCC(=O)N[C@@H](CCC(=O)NCCCC[C@H](NC(=O)[C@H](CO)NC(=O)[C@H](CC(=O)O)NC(=O)[C@H](CC(C)C)NC(=O)[C@H](Cc1ccc(O)cc1)NC(=O)[C@H](CCCCN)NC(=O)[C@H](CO)NC(=O)[C@H](Cc1ccc(O)cc1)NC(=O)[C@H](CC(=O)O)NC(=O)[C@H](CO)NC(=O)[C@@H](NC(=O)[C@H](Cc1ccccc1)NC(=O)[C@@H](NC(=O)CNC(=O)[C@H](CCC(N)=O)NC(=O)[C@H](CO)NC(=O)[C@@H](N)Cc1c[nH]cn1)[C@@H](C)O)[C@@H](C)O)C(=O)N[C@@H](C)C(=O)N[C@@H](C)C(=O)N[C@@H](Cc1c[nH]cn1)C(=O)N[C@@H](CC(=O)O)C(=O)N[C@@H](Cc1ccccc1)C(=O)N[C@H](C(=O)N[C@@H](CCC(=O)O)C(=O)N[C@@H](Cc1c[nH]c2ccccc12)C(=O)N[C@@H](CC(C)C)C(=O)N[C@@H](CC(C)C)C(=O)N[C@@H](CO)C(N)=O)C(C)C)C(=O)O) [Compound 8],0.29,0.41,1.41,0.95,1.1
